For 2 molecules, IC50 results are on record in patent US6897044 (Biogen, dated 2005).

In assay [1] the target is T1, CD20 antigen (human, UniProt P11836 1-297).
T1 construct: whole, on cells; Carried by the cell lines SKW and SB (CD20+/CD23+) and DHL-4 (CD20+/CD23-); also called human CD20
T1 sequence (looked up): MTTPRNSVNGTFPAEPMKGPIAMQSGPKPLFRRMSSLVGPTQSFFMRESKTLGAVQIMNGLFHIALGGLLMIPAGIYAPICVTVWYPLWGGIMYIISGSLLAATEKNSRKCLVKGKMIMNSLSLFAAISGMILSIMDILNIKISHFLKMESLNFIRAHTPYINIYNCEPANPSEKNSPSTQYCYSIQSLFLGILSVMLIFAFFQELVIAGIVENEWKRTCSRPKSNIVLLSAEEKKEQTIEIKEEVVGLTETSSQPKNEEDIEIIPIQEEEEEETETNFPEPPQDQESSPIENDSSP
Put plainly: competitive binding on SKW cells against murine 2B8, flow cytometry with FITC anti-human IgG (by the method, 2B8 was serially diluted and C2B8 fixed at 1 µg/ml). The protocol:
(§1) Binding of monomer and dimerized antibody to various cells was evaluated by indirect immunostaining using FITC anti-human IgG and analyzed using flow cytometry (indirect IF). Cells (2×10^6 viable cells in 0.1 ml cmfPB S/2% Fetal Calf Serum/0.1% Sodium Azide, PBS/FCS buffer) were incubated for one hour on ice with 0.1 ml of 5 fold serially diluted antibody. Cells were twice washed by centrifugation (200×g) using 2 ml PBS/wash and suspended in 0.2 ml FITC conjugated Goat (Fab')_2 anti-human IgG (Jackson Immunoresearch #30869, 5 µg/ml in PBSIFCS buffer). After 30-min. incubation on ice, cells were again washed in PBS and suspended in 0.2 ml 0.5% freshly diluted formaldehyde, capped and stored at 4° C. until analysis. The amount of cell bound antibody was determined by flow cytometry (FACScan, Becton-Dickenson, Mountain View, Calif.).
(§2) The binding affinity of the C2B8 homodimer and monomer for the CD20 antigen was compared using a competitive binding assay (FIG. 10). SKW cells were first incubated for 30 minutes on ice with various amounts of 5-fold serially diluted murine (anti-CD20) MAb 2B8, and by 0.1 ml (at 1 µg/ml) of either C2B8 monomer or homodimer. Indirect IF, as described for FIG. 9, evaluated the amount of C2B8 binding. […]
A general note: In flow cytometry, cells or beads pass a laser one at a time.

For assay [2], the target named is T1, CD20 antigen. Put plainly: competitive binding on SKW cells against murine 2B8, flow cytometry with FITC anti-human IgG (by the method, 2B8 was serially diluted and homodimer fixed at 1 µg/ml). As for the experimental part:
as §1, §2

B1: C2B8, mouse/human chimeric monoclonal antibody specific for CD20 (150 kDa IgG monomer) (antibody, V domains shown)
VH: QVQLQQPGAELVKPGASVKMSCKASGYTFTSYNMHWVKQTPGRGLEWIGAIYPGNGDTSYNQKFKGKATLTADKSSSTAYMQLSSLTSEDSAVYYCARSTYYGGDWYFNVWGAGTTVTVSA
VL: QIVLSQSPAILSASPGEKVTMTCRASSSVSYIHWFQQKPGSSPKRWIYATSNLASGVPVRFSGSGSGTSYSLTISRVEAEDAATYYCQQWTSNPPTFGGGAKLEIKR
notes: also called C2B8 monomer; chimeric C2B8
On to B1, for which, in the assay with CD20 antigen [1], the IC50 (in general, the concentration that gives 50% inhibition) came out at 9.8 µg/mL.

B2: C2B8 (-s-s-) homodimer, disulfide linked IgG/IgG homodimer of C2B8/SH (300 kDa, tetravalent) (antibody, V domains shown)
VH: B1 VH
VL: B1 VL
modifications: engineered cysteine near the carboxyl terminus of the gamma 1 chain (printed as position 444 and as position 445) joins the two IgG molecules by an intermolecular disulfide bond
notes: also called C2B8 (disulfide linked) homodimer; C2B8 homodimer
Regarding B2, in the assay with CD20 antigen [2], the half-inhibitory concentration (IC50) worked out at 10.4 µg/mL.
